Data as given in the nanobody polyreactivity screen of Harvey et al. (2022).

Assay: yeast display, Sf9 membrane polyspecificity reagent, FACS + sequencing; frameworks hold sequencing errors
Outline: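 Nanobodies came from a synthetic yeast display library in Saccharomyces cerevisiae BJ5465, induced with galactose for 36–48 hours and stained for 1 hour at 4 °C with 10% biotinylated, detergent-solubilized Sf9 membrane reagent. Cells were enriched on streptavidin microbeads and then FACS-sorted, with low and high (top ~1%) gates set on anti-HA fluorescence for expression and streptavidin fluorescence for reagent binding. Each polyreactivity label reflects the gate a clone came from. Genes were amplified by colony PCR, sequenced by MiSeq 2 × 250 and filtered by CDR length.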

Sequence | polyreactivity (PSR sort gate)
QVQLVESGGGLVQAGGSLRLSCAASGSIFPINAMGWYRQAPGKERELVAVITSGGGGTYYADSVKGRFTISRDNAKNTVYLQMNSLKPEDSAVYYCAKRLSRKWQKFGYWGQGSQVTVSS | low polyreactivity
QVQLVESGGGIVQAGGSLRLSCAASGRTFRGNAMGWYRQAPGKERELVAAISWSGGRTYYADSVKGRFTISRDNAKNTVYLQMNSLKPEDTAVYYCNRLTRRWYSLRSFDYWGQGTQVTVSS | high polyreactivity
QVQLVESGGGLVQAGGSLRLSCAASGSTFYYYAMGWYRQAPGKERELVAAISSGGSTYADSVKGRFTISRDNAKNTVYLQMNSLKPEDTAVYWGQGTQVTVSS | low polyreactivity
QVQLVDSGGGLVLAGGSLRLSCAASGRTFAYYVMGWYREAPGKERELVAAISGRGGRTNYADSVKGRFTISRDNANNTVFLQMNSLKPEDTAVYYFAADLKLGTFNYWGQGTQVTVSS | high polyreactivity
QVQLVESGGGLVQAGGSLRLSCAASGFTFKYYAMGWYRQAPGQERELVAAISSTGSTYYADSVKGRFTISRDNAKNTVYLQTNSLKPEDTAVYYCNKLFEYWGGDNDYWGRGTQVTVSS | high polyreactivity
QVQLVESGGGLVQAGGSLRLSCAASGRIFGVNAMGWYRQAPGKERELVAAIDWSDGSTYYADSVKGRFTISRDNAKNTVYLQMNSLKPEDTAVYYCATDYSYGDYYDDEFPSDDFDYWGQGTQVTVSS | low polyreactivity
QVQLVESGGGLVQAGGSLRLSCAASGSIFGYYTMGWYRQAPGKERELVAAISRRGGSTYYADSVKGRFTISRDNAKKTVYLQMNSLKPEDTAVYYCAADVARSRHFEMDYWGQGTQVTVSS | high polyreactivity
QVQLVESGGGLVQAGGSLRLSCAASGFTFNFYAMRWYRQAPGKERELVAAITASGVRRYYADSVKGRFTISRDNAKNTVYLQMNSLKPEDTAVYYCNTYMYRNKSGYDYWGQGTQVTVSS | high polyreactivity
QVQLVESGGGLVQAGGSLRLSCAASGSIFDAYALGWYRQAPGKERELVADITFSAGRTYYADSVKGRFTITRDNAKNTVYLQMNSLKPEDTAVYYCAADSIVGDGYWSYYWGQGTQVTVSS | low polyreactivity
QVQLVESGGGLVQAGGSLRLICAASGYTFYFYAMGWYIQAPGKERELVAAITGGGTTSYADSVKGRFTISRDKAKNTVYLQMNSLKPEDTAVYYCASSVRNNIERYRDYYWGQGTQVTVSS | low polyreactivity
QVQLVESGGGLVQAGGSLRLSCAASGRIFGFYAMGWYRQAPGKERELVAVISNGGGSTYYADSVKGRFTISRDNAKNTVYLQMTSLKPEDTAVYYCAVALKYPRRYYYWGQGTQVTVSS | high polyreactivity
QVQLVESGGGLVQAGGSLRLSCAASGRTFTRNAMGWYRQAPGKERELVAAITRGASTYYADSVKGRFTISRDNAKNTVYLQMNSLKPEDTAVYYCAVSQYRGIYRKYDYWGQGTQVTVSS | high polyreactivity
QVQLVESGGGLVQAGGSLRLSCAASGITFSYNARGWYRQAPGKERELVAAIRVGDGSTYYADSVKGRFTISRDNAKNTVYLQMHSLKPEDTAVYYWNARYLRLRYPYTDEYNYWGQGTQVTVSS | low polyreactivity
QVQLVESGGGLVQAGGSLRLSCAASGRTFSTYAMGWYRQAPGKERELVARITSSGGSTYYAHSVKGRFTISRDIAKNSVYLQMNCLKPEDTAVYYCAAYAHYAQRYYYWGQGTQVTVSS | high polyreactivity
QVQLVESGGGLVQAGGSLRLSCAASGRIFGSYAMGWYRQAPGKERELVATISRRGGSTYYADSVKGRFTISRDNAKNTVYLQMNRLKPEDTAVYYCNADYKITKTWSGTIRYYYWGQGTQVTVSS | high polyreactivity
QVQLVESGGGLVQAGGSLRLSCAASGSTFDANAMGWYRQAPGKERELVADITVRDGSTYYADSVKGRFTISRDNAKNTVYLQMNSLKPEDTAVYYCNAGRYTGGYSPGYGYWGLGTQVTVSS | low polyreactivity
QVQLVESGGGLVQAGGSLRLSCAASGSTFRTYAMGWYRQAPGKERELVAAISVSGGRTYYADSVKGRFTISRDNAKKTVYLQMNSLKPEDTAVYYCAARQYRYELEYWGQGTQVTVSS | low polyreactivity
QVQLVESGGGLVQAGGSLRLSCAASGIIFDDYAMGWYRQATGKERELVAVISSSGGNTYYADSVKVRFTISRDNAKNSVYLQMNSLKPEDTAVYYCAATYYYKSIYWFEYWGQGTQVTVSS | low polyreactivity
QVQLVESGGGLVQAGGRLLLSCAASGFTFYTYAMGWYRQAPGKERELVADISSGGSTNYADSVKGRFTISRDNAKNTVYLQMNSLKPEDTAVYYCSADYYFLDWYDYWGQGTQVTVSS | low polyreactivity
QVQLVESGGGLVQAGGSLRLSCAASGITFYYYAMGWYRQAPGKERELVAAISRSGGRTYYADSVKGRFTISRDNAKNTVYLQMNSLNPEDTAVYYCAAVRYQGGDSSIEYDYWGQGTQVTLSS | high polyreactivity
QVQLVESGGGLVQAGGSLRLSCAASGLTFEYYTMGWYRQAPGIERELVAAITSSGGSTYYADSVKGRFTISRDNAKNTVYLQMISLKPEDTAVYYCNAYWTYEFPSYEYWGQGTQVTVSS | low polyreactivity

Sequence | polyreactivity (PSR sort gate)
QVQLVESGGGLVQAGGILRLSCADSGRTFGSNAMGWYRQAPGKERELVAAISGRTDSTYYADSVKGRFTISRDNAKNTVYLQMNSLKPEDTAVYYCAADSADVLYYYIRYNYWGQGTQVTVSS | low polyreactivity
QVQLVESGGGLVQAGGSLRLSCAASGSTFGYYTMGWYRQAPGKERQLVAAISWSGGSTYYADSVKGRFTISRDNAKNTVYLLMNSLKPEDTAVYYCARGSQYRLWRTPHYYWGQGTQVTVSS | high polyreactivity
QLQLVESGGGLVQAGGSLRLSCAASGRILRYYTMGWYRQAPGKERELVAAISRSGGGTYYADSVKGRFTISRDNANNTVDIEMYSLIPEDTSVYYCAAYKPSPYSSDYDYWGEGTQVTVSS | high polyreactivity
QVQLVESGGGLVQAGGSLRFSCAASGSIFKTNAIGWYRQAPGKERELVAAIRASGGSTYYADSVKGRFTISRDNAKNTVYLQMNSLKPEDTAVYYCAARVSGSRKYYYWGQGTQVTVSS | high polyreactivity
QVQLVESGGGLVQAGGSLRLSCAASGRIFGPNAMGWYRPAPGKERELVAAISTRDGSTSYADSVKGRFTISRDNAKNTVYLQMNSLKPEDTAVYYCAKRWPYWYRVTQYDNVDYWGQGTQVTVSS | low polyreactivity
QVQLVESGGVLVQAGGRLRLSCAASGLTFYLYAMGWYRQAPGKQREFVAAISRSGTSTYYADSVKGRFTISRDYAKNTVNLQKNSLKPDDTAVYYCAALNYHKFAHKYDYWGQGTPVTVSS | low polyreactivity
QVQLVESGGGLVQAGGSLRLSCAASGFTFSSNAMGWYRQAPGKERELVAAISFNSTSTYYADSVKGRFTISRDNAKNTVYLQMNSLKPEDTAVYYCAADVPRVQSEPEYDYWGQGTQVTVSS | low polyreactivity
PVQLVESGGGLVQAGGSHRLSCAASGITFGVYPMGWYRQAAGKERELVAAISRRGASTYYADSVKGRFTISRDKAKNSVYLQMNSLKPEDTAVYYCAAYLARRQYDYWGQGTQVTVSS | high polyreactivity
QFQLVESGGGLVQAGGSLRLSFAASGFIFGLYAMGWYRQAPGIETELVAAISGSGGSTYYADSVKGRFTISRDNAKNTVYLQMNSLKPEDTAVYYCNRAQGVHTYVYRYGYWGQGTQVTVSS | low polyreactivity
QVQLVESGGALVQAGGSLRLSCAASGRTFYPNAMGGYRQAPGKERELVAGSSYGTGSTYYADSVKGRFTISRDNAKNTVYLQMNSLKAEDNAVYYCAADNWAVNAYYWYIYDYWGQGTQVTVSS | low polyreactivity
QVQLVESGGGLVQAGGSLRLSCAASGRIFKGNAMGWYRQAPGKEREFVAAISQRGGSTYYADSVKGRFTISRDNAKNTVYLQMNSLKPEDTAVYYCAAVRKSVGVKYDYWGQGTQVTVSS | high polyreactivity
QVQLVESGGGLVQEGGSLRLSCAASGSTFNYYAMGWYRQAPGKESELVARISWSGSTYADSVKGRFTISRDNAKNTVYLQMNSLKPEDTAVYYCAAPYVLKSHRGMDYWGQGTQVTVSS | low polyreactivity
QVQLEESGGGLVQAGGSLRLICAASGGIFQKYAMGWYRQAPGKERELVASNNTGVRTYYADSVKGRFTISRDNAKNTVYLQMNSLKPEDTAVYYCNADGGGPRKYTRTRGHWGQGTQVTVSS | low polyreactivity
QVQRVESGGGLVQAGGSLRLSCDASGFTFAFYAMGWYRQAPGKERELVAAITGSGGSTYYADSVKGRFTISRDNAKNTVYLQMNRLKPEDTAVYYCNTYHQFSYDYWGQGTQVTVSS | high polyreactivity
QVQLVESGGGLVQAGGSLRLSCAASGITFYFYAMGWYRQAPGKERELVARITSRGTRTYYADSVKGRFTISRDNAKNTVYLQMNSLKPEDTAVYYCAAGVSWDDYYWGQGTQVTVSS | high polyreactivity
QVQLVESGGGLVQAGGSLRLSCAASGRTFGVYAMGWYRQAPGKERELVAAIRWSGGGTYYADSVKGRFTISRDNAKNTVYLQMNSLKPEDTAVYYCNAEIWTEGGYWGQGTQVTVSS | low polyreactivity
QVQLVESGGGLVQAGGSLRLSCAASGRTLTAYAMGWYRQAPGKERELVAAISVTGDNTYYADSVKGRFTISRDNAKNTVYLQMNSLKPEDTAVYYCDARKQYKYGYWGQGTQVTVSS | low polyreactivity
QVQLVETCGGLVHAGGSLRLSCAASGSTFVDNSMGRYRQAPGKERELGADISWSGGSTYYADSVKGRFTNSRDNAKTTVYLQMNSLKPQDTAVYYCAAYRNDYGYWTYVYYTDDYDYWGQGTQVTVSS | low polyreactivity
QVQLVESGGGLVQAGGSLRLIWAASGFTFWLNAMGWYRQAPGKERELVAAINWSGGSTYYADSVKGRFTISRDNAKNTVYLLMNILKPEDTAVYYCNRRGQYTFWPIHEYWGQGTQVTVSS | high polyreactivity
QVQLVESGGGLVQAGGSLRLSCAASGRIFKNYAMGWYRQAPGKERELVAGITRTGGSTYYADSVKGRFTISRDNAKNTVYLQMNSLKPEDTAVYYCAARPARKLVYWVQGTQVTVSS | high polyreactivity
